Experimental data taken from PMC7044329.

Biological target: transcriptional activation domain of ATF6α
Assay: affinity purification with mass spectrometry; Mediator enriched from wild-type and MED26 hypomorphic HEK293T cells by binding to the ATF6α transcriptional activation domain (glutathione affinity); semi-quantitative MudPIT

Substance: mutant MED26 that lacks the NTD (from UniProt O95402 1-600) (natural protein)
- level in Mediator relative to wild-type MED26: 30 to 50%
